According to US20220389077A1, “ALLOGENEIC CELL COMPOSITIONS AND METHODS OF USE” (Poseida Therapeutics, Inc., priority 2018, published 2022):

Legend:
human CD48 = biological target: T1, human CD48 (Homo sapiens, UniProt P09326); test: T cell degranulation (CD107a) against cells overexpressing CD48; type: cell-based; conditions: 4-6 hours coculture; K562 or Rat2 cells
T1 construct: expressed in transfected cells; host or cells: K562 or Rat2 cells, electroporated/lipofected with mRNA
T1 sequence (P09326 27-220): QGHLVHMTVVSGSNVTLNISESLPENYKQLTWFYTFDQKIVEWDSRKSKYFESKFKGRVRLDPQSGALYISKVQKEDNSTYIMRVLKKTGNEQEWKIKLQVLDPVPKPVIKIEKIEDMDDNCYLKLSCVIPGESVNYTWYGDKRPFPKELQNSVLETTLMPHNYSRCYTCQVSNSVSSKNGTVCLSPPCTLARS
Description: (§1) FIG. 23D is a series of flow cytometry plots showing the expression of CD48, CD58 or CD59 on K562 and Rat2 cells. To confirm possible ligands for the CSR WT CD2z molecule, a panel of known and suspected ligands including human CD48, CD58, and CD59 were tested. Degranulation of engineered T cells was evaluated against the cell lines K562 and Rat2 that were made to overexpress the target ligands and confirmed for expression by FACS staining. Red histograms are unstained cells and blue histograms are cells that were electroporated/lipofected with mRNA and then stained for expression of the respective marker by FACS.
FIG. 23E is a bar graph showing that CSR CD2z recognizes human CD58, but not CD48 or CD59. To confirm possible ligands for the CSR WT CD2z molecule, a panel of known and suspected ligands including human CD48, CD58, and CD59 were tested. Degranulation of engineered T cells was evaluated against the cell lines K562 and Rat2 that were made to overexpress the target ligands and confirmed for expression by FACS staining. Cells were electroporated/lipofected with mRNA and then stained for expression of the respective marker by FACS. […] T cell degranulation is a surrogate of T cell killing that can be measured by FACS staining for intracellular CD107a expression following coculture with target cell lines expressing target antigen. […]

TCRb and b2M = test: Gene editing (knockout of TCR and MHCI) of Allo CAR-T cells with CSR; type: cell-based, human; conditions: up to 14-day culture; CSR stable or transient
Description: Pan T cells isolated from healthy donor blood were genetically modified using the piggyBac® DNA modification system in combination with the Cas-CLOVER™ gene-editing system (CC) to produce allogeneic (Allo) CAR-T cells. […] Following EP, all cells were subsequently stimulated with a cocktail of agonist mAbs anti-CD2, anti-CD3 and anti-CD28, and were later selected for genetic modification over the course of up to a 14-day culture period using the selection gene. At the end of the initial culture period, all T cells expressed the CAR, indicating successful selection for genetically-modified cells (data not shown). All samples were performed in duplicate, and data is shown in bar graph where error bars represent standard deviation.

human CD58 = biological target: T2, human CD58 (Homo sapiens, UniProt P19256); test: T cell degranulation (CD107a) against CD58-positive cell targets; type: cell-based; conditions: 4-6 hours coculture; K562 or Rat2 cells with mRNA encoding human CD58
T2 construct: expressed in transfected cells; host or cells: K562 (electroporated) or Rat2 (lipofected) cells
T2 sequence (P19256 29-250): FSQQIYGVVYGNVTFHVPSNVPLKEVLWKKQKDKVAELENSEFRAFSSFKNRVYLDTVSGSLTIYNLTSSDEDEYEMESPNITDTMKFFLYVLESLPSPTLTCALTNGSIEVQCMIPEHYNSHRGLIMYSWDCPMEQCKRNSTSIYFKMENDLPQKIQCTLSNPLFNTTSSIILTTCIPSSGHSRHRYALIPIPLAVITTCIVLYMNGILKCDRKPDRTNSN
Description: FIG. 23B is a series of bar graphs showing CSR CD2z mutant degranulation data. The panel of CSR CD2z mutants was tested for the capability of mediating degranulation against CD58-positive cell targets. T cell degranulation is a surrogate of T cell killing that can be measured by FACS staining for intracellular CD107a expression following coculture with target cell lines expressing target antigen. Specifically, pan T cells from normal blood donors were stimulated with anti-CD3/anti-CD28 beads in standard T cell culture media, then rested. These cells were then electroporated (BTX ECM 830 electroporator @ 500V for 700 μs) with 9 μg of mRNA expressing CSR CD2z mutants and cultured overnight. The next day, the cells were cocultured for 4-6 hours in the presence of various target cell lines. Positive target cell lines included K562 cells or Rat2 cells that were electroporated or lipofected, respectively, with mRNA encoding human CD58, while negative controls were either Rat2 cells that were not electroporated or CSR CD2z mutant expressing T cells alone.
FIG. 23C is a summary of staining and degranulation data. Data from surface-expression and binding studies, as well as those from degranulation experiments for each CSR CD2z mutant is summarized in the table.
as §1
FIG. 23E is a bar graph showing that CSR CD2z recognizes human CD58, but not CD48 or CD59. To confirm possible ligands for the CSR WT CD2z molecule, a panel of known and suspected ligands including human CD48, CD58, and CD59 were tested. Degranulation of engineered T cells was evaluated against the cell lines K562 and Rat2 that were made to overexpress the target ligands and confirmed for expression by FACS staining. Cells were electroporated/lipofected with mRNA and then stained for expression of the respective marker by FACS. As a control, a BCMA CAR was included as well as a K562 cell line overexpressing BCMA. In addition, T cells transfected with GFP were also included as a control. T cell degranulation is a surrogate of T cell killing that can be measured by FACS staining for intracellular CD107a expression following coculture with target cell lines expressing target antigen. Pan T cells from normal blood donors were stimulated with anti-CD3/anti-CD28 beads in standard T cell culture media, then rested. These T cells were then electroporated with mRNA expressing CSR WT CD2z, BCMA CAR, or GFP and cultured overnight. The next day, the cells were cocultured for 4-6 hours in the presence of the various target cell lines that were electroporate/lipofected with mRNA encoding human CD48, CD58 or CD59, while negative controls were either K562 or Rat2 cells that were not electroporated/lipofected, or each of the electroporated T cells alone.

degranulation (CD107a) against CD48 (human CD48): not against human CD48 or CD59
B1: CD2z CSR: chimeric stimulatory receptor: CD2 signal peptide, extracellular, transmembrane and cytoplasmic domains with CD3z intracellular domain (SEQ ID NO: 17062) (protein)
chain: MSFPCKFVASFLLIFNVSSKGAVSKEITNALETWGALGQDINLDIPSFQMSDDIDDIKWEKTSDKKKIAQFRKEKETFKEKDTYKLFKNGTLKIKHLKTDDQDIYKVSIYDTKGKNVLEKIFDLKIQERVSKPKISWTCINTTLTCEVMNGTDPELNLYQDGKHLKLSQRVITHKWTTSLSAKFKCTAGNKVSKESSVEPVSCPEKGLDIYLIIGICGGGSLLMVFVALLVFYITKRKKQRSRRNDEELETRAHRVATEERGRKPHQIPASTPQNPATSQHPPPPPGHRSQAPSHRPPPPGHRVQHQPQKRPPAPSGTQVHQQKGPPLPRPRVQPKPPHGAAENSLSPSSNRVKFSRSADAPAYKQGQNQLYNELNLGRREEYDVLDKRRGRDPEMGGKPRRKNPQEGLYNELQKDKMAEAYSEIGMKGERRRGKGHDGLYQGLSTATKDTYDALHMQALPPR
degree of gene editing compared to Allo CAR-T cells produced without a CSR (TCRb and b2M): a similar or greater degree of gene editing | degranulation (CD107a) against CD58 (human CD58): capable of degranulating at levels above background
